Experimental data: PMC8936114

Biological target: NSP12 (RNA-dependent RNA polymerase) (SARS-CoV-2, UniProt P0DTD1 4393-5324)
Assay: filter binding; 20 mM Tris, 200 mM KCl, room temperature, 1 h; pH not stated; […]
Settings: protein: commercial; tags: His; label: 3' biotin; stem loops

B1: Scov2_7431_7555_RNA (structured_RNA)
RNA: GGGCGAAAACGCCCCAUUUUAUUAUGUAUGGAAAAGUUAUGUGCAUGUUGUAGACGGUUGUAAUUCAUCAACUUGUAUGAUGUGUUACAAACGUAAUAGAGCAACAAGAGUCGAAUGUACAACUAUUGUUAAUGGUGUU
modifications: 3' biotinylation (Pierce RNA 3' End Biotinylation Kit)
- Kd: 17 nM
